From patent US20060210536A1 (published 2006)

Molecular target: STAT3 (Homo sapiens (Human), UniProt P40763 1-770)
Assay: FLAG affinity purification from transfected cell lysate, immunoblot with STAT3 antiserum

Chain of STAT3 (P40763 whole entry): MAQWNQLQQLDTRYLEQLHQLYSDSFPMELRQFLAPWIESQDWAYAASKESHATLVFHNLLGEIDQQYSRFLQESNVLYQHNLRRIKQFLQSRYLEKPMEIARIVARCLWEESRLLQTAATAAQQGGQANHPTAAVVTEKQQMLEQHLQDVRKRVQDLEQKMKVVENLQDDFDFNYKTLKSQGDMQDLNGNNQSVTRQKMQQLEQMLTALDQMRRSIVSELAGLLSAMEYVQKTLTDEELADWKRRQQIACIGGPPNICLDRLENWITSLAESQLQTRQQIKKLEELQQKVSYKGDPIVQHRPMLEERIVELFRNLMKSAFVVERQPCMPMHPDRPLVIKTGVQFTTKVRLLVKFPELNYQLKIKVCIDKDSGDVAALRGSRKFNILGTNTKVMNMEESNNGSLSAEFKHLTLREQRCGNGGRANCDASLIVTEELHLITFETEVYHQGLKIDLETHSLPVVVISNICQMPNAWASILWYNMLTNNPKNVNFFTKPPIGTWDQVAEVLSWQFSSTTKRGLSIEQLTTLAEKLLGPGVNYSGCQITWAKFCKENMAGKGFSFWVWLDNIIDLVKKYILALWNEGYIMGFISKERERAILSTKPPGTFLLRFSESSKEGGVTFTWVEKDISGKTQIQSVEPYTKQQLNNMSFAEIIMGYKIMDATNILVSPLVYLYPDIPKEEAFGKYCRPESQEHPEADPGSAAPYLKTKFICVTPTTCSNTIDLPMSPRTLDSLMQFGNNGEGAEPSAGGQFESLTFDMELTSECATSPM

B1: FLAG-tagged SV5 V protein (other)
chain: MDPTDLSFSPDEINKLIETGLNTVEYFTSQQVTGTSSLGKNTIPPGVTGLLTNAAEAKIQESTNHQKGSVGGGAKPKKPRPKIAIVPADDKTVPGKPIPNPLLGLDSTPSTQTVLDLSGKTLPSGSYKGVKLAKFGKENLMTRFIEEPRENPIATSSPIDFKRGRDTGGFHRREYSIGWVGDEVKVTEWCNPSCSPITAAARRFECTCHQCPVTCSECERDT
notes: also called FLAG-SV5 V
binding result: no binding
